Assay: Single dose PK study of oral Adalimumab in comparison with intravenous administration
Assay type: in vivo
Details: beagle dogs; oral 15 mg in lyophilized liposomes with 1 mol-% cycR9 conjugate in enteric coated capsule vs 3 mg intravenous; comparison of AUC values, ELISA
Method: Single dose PK study of oral Adalimumab (Humira™) in comparison with Adalimumab after intravenous administration. As animals, 2 beagle dogs were used. The oral dose of Adalimumab was 15 mg encapsulated in liposomes containing 1-mol% of the cycR9 conjugate described before. The liposomes were lyophilized and afterwards filled in an enteric coated capsule. The intravenous dose was 3 mg. The blood sampling time points for the oral administration were: 0 (pre-dose), 0:15, 0:30, 1:00, 2:00, 4:00, 8:00, 24:00, 48:00, 96:00 h p.a. The blood sampling time points for the intravenous administration were: 0 (pre-dose), 0:15, 0:30, 1:00, 2:00, 4:00, 8:00, 24:00, 48:00, 96:00 h p.a. All blood samples were analyzed by ELISA measurements (IDKmonitor® Adalimumab drug level ELISA, Immundiagnostik AG, Bensheim).

Adalimumab
bioavailability after oral administration: 3.55%
